Literature values in US20230142365A1, “POLY(SARCOSINE) POLYMER EXCIPIENTS” (CALUSA BIO, LLC, priority 2021, published 2023).

System: anti-drug antibodies (ADAs)
Details: share of anti-drug antibodies against the TNF blocker that are neutralizing; van Schie et al. 2015

Substance	ADAs neutralizing [%]
infliximab: tumor necrosis factor (TNF) blocker Remicade (infliximab)	90
adalimumab	97
